What was measured:
[1] = biological target: His6-tagged full-length gp25 (tail fiber chaperone of myocyanophage Pam3), expressed alone (cyanophage Pam3); test: SEC; individually expressed His-gp24 or His-gp25; Superdex 200 Increase 10/300 column; peaks analysed by SDS-PAGE
[2] = biological target: His6-tagged full-length gp24 (tail fiber protein of myocyanophage Pam3) (cyanophage Pam3); test: SDS-PAGE of samples that were not boiled; purified protein treated with beta-mercaptoethanol, not boiled
[3] = biological target: His6-tagged full-length gp24 (tail fiber protein of myocyanophage Pam3) (cyanophage Pam3); test: SEC; His-gp24 co-expressed with untagged gp25 in E. coli, purified by Ni-NTA; Superdex 200 Increase 10/300 column; peaks analysed by SDS-PAGE
[4] = biological target: His6-tagged full-length gp24 (tail fiber protein of myocyanophage Pam3) (cyanophage Pam3); test: SEC; individually expressed His-gp24 or His-gp25; Superdex 200 Increase 10/300 column; peaks analysed by SDS-PAGE
[5] = biological target: His6-tagged full-length gp24 (tail fiber protein of myocyanophage Pam3) (cyanophage Pam3); test: SEC-MALS; Superdex 200 Increase 10/300 GL in 20 mM Tris-HCl pH 7.0, 100 mM NaCl, 7 mM beta-mercaptoethanol; 1 mg/mL, 100 uL

With “His6-tagged full-length gp25 (tail fiber chaperone of myocyanophage Pam3), expressed alone (natural protein)” the stoichiometry N [1] was 3.
“His6-tagged full-length gp24 (tail fiber protein of myocyanophage Pam3) (natural protein)” gave a stoichiometry N [2] of 3, a stoichiometry N [3] of 3 and a stoichiometry N [4] of 3. It also gave a stoichiometry N [5] of 3.
“gp25 (tail fiber chaperone of myocyanophage Pam3), untagged, co-expressed with His-gp24 (natural protein)” gave a stoichiometry N (gp25 per gp24 (3:3)) [5] of 1.
